Reference: patent US20240352438A1, “MEANS AND METHODS FOR DETOXIFYING OCHRATOXIN A” (DSM Austria GmbH, priority 2021, published 2024)
Positions count from the first letter of the chain named.

B1: 209 (protein)
chain: MTTRTRILTAFLSLLAANACAADAAPAAPRTVVLRAARMFDGASGKLVDHPQLTIVGNKIVRIAQGDKAEVPAGAEVVDLGDATLLPGFIDAHVHLSGQSSDNWYGDFFDNMMRFPAEQALYGAYYARITLEAGFTSVRDVGSTDWVALGLRNAIDAGKVPGPRMLVSNYAVGSTGGHADQDPIPPHKLPLAGPLQGVCNGPEECRAAVRYQIKYGANVIKFMPSGGVLSLSDPVDAPELSQDEMNAVIGESHAWGRKVAAHAHGDKAAKMAVAAGVDSIEHGSFIEDDTLRAMKAKNVYLVPTISAIAHVEEKIGTFPPVIAEKGRAAAAHLRQTFRHAVQIGVPIALGTDAGVGAHGSNAREFRYMVENGLTPAQALLAGTANAARLLGTFDRVGTLEAGKLADVVAVPGNPIADITVTERPLFVMKDGVVVRRDAVR
modifications: exemplary polypeptide
B2: 235 (protein)
chain: B1 chain with R30H, H253N
modifications: exemplary polypeptide
B3: 224 (protein)
chain: B1 chain with R30H, K188R
modifications: exemplary polypeptide
B4: 240 (protein)
chain: B1 chain with R30H, H310E
modifications: exemplary polypeptide
B5: 214 (protein)
chain: B1 chain with R30H, N103D
modifications: exemplary polypeptide
B6: 213 (protein)
chain: B1 chain with R30H, S100D
modifications: exemplary polypeptide
B7: 217 (protein)
chain: B1 chain with R30H, T130E
modifications: exemplary polypeptide
B8: 234 (protein)
chain: B1 chain with R30H, H253A
modifications: exemplary polypeptide
B9: 211 (protein)
chain: B1 chain with R30H, H50N
modifications: exemplary polypeptide
B10: 242 (protein)
chain: B1 chain with R30H, H332R
modifications: exemplary polypeptide
B11: 210 (protein)
chain: B1 chain with R30H, H50D
modifications: exemplary polypeptide
B12: 227 (protein)
chain: B1 chain with R30H, G226S
modifications: exemplary polypeptide
B13: 231 (protein)
chain: B1 chain with R30H, D233N
modifications: exemplary polypeptide
B14: 237 (protein)
chain: B1 chain with R30H, S284H
modifications: exemplary polypeptide
B15: 241 (protein)
chain: B1 chain with R30H, H332E
modifications: exemplary polypeptide
B16: 239 (protein)
chain: B1 chain with R30H, H310D
modifications: exemplary polypeptide
B17: 218 (protein)
chain: B1 chain with R30H, H187D
modifications: exemplary polypeptide
B18: 230 (protein)
chain: B1 chain with R30H, S230T
modifications: exemplary polypeptide
B19: 216 (protein)
chain: B1 chain with R30H, N103Q
modifications: exemplary polypeptide
B20: 220 (protein)
chain: B1 chain with R30H, H187G
modifications: exemplary polypeptide
B21: 219 (protein)
chain: B1 chain with R30H, H187E
modifications: exemplary polypeptide
B22: 225 (protein)
chain: B1 chain with R30H, G226A
modifications: exemplary polypeptide
B23: 238 (protein)
chain: B1 chain with R30H, S284T
modifications: exemplary polypeptide

Test: OTA detoxification activity assay (specific activity, fluorescence reduction ex/em 390/450 nm)
Type: biochemical
Conditions: pH 6.0; SEQ ID NO: 1 = 100%
Method in brief: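 Recombinant enzyme preparation with 200 ng/mL OTA in 100 mM sodium phosphate, at pH 6.0 and pH 7.5, 37° C. Degradation followed as the fall in fluorescence at ex/em 390/450 nm. Specific activity taken from the initial linear slope; one unit degrades 1 μmol OTA per min at a starting OTA of […].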

Molecule | Specific OTA detoxification activities in % compared to the enzyme of SEQ ID NO: 1, pH 6.0 [%]
B1 | 143
B2 | 56
B3 | 169
B4 | 86
B5 | 123
B6 | 76
B7 | 153
B8 | 23
B9 | 121
B10 | 41
B11 | 93
B12 | 47
B13 | 20
B14 | 49
B15 | 18
B16 | 73
B17 | 104
B18 | 141
B19 | 147
B20 | 85
B21 | 87
B22 | 24
B23 | 151

Same assay, conditions: pH 7.5; SEQ ID NO: 1 = 100%

Molecule | Specific OTA detoxification activities in % compared to the enzyme of SEQ ID NO: 1, pH 7.5 [%]
B1 | 88
B2 | 38
B3 | 132
B4 | 101
B5 | 108
B6 | 39
B7 | 139
B8 | 13
B9 | 111
B10 | 54
B11 | 102
B12 | 36
B13 | 22
B14 | 26
B15 | 55
B16 | 76
B17 | 101
B18 | 127
B19 | 115
B20 | 83
B21 | 88
B22 | 27
B23 | 97

Test: Enzymatic activity comparison: activity remaining after 65° C. for 10 min at pH 6.0, relative to SEQ ID NO: 1
Type: physicochemical
Conditions: not given
Protocol: To compare the temperature behavior and thermostability of selected enzymes to one another, enzyme was incubated at 65° C. for 10 min at pH 6.0. The enzymatic activity remaining after incubation was compared to the remaining activity of the enzyme of SEQ ID NO: 1 after incubation, the latter being set to 100%, see Table 16.

Molecule | Enzymatic activity remaining after incubation, compared to SEQ ID NO: 1 (set to 100%) [%]
B1 | 31
B2 | 56
B3 | 40
B4 | 44
B5 | 59
B6 | 25
B7 | 36
B8 | 50
B9 | 34
B10 | 11
B11 | 39
B12 | 24
B13 | 75
B14 | 14
B15 | 73
B16 | 30
B17 | 28
B18 | 32
B19 | 14
B20 | 22
B21 | 38
B22 | 84
B23 | 24
